Where a chain is given by its changes, count along the chain named.

To fix the notation:
B1: Hu3D6VHvb6 / Hu3D6VLvb2 (antibody, V domains shown)
VH: EVQLVQSGAEVVKPGATVKISCKASGFTIKDYYLHWVRQRPGKGLEWIGWIDPEDGETVYDPKFQGRVTITADTSTDTAYMELSSLRSEDTAVYFCSTLDFWGQGTLVTVSS
VL: not shown
modifications: here or on the partner: pHrodo-labeled
B2: Hu3D6VHvb6 / Hu3D6VLvb3 (antibody, V domains shown)
VH: B1 VH
VL: DVVMTQSPLSLSVTLGEPASISCRSSQSLLDSDGKTYLNWLQQRPGQSPRRLIYLVSKLDSGVPDRFSGSGSGTDFTLKISRVEAEDVGVYYCWQGTHFPYTFGQGTKLEIKR
modifications: here or on the partner: pHrodo-labeled
B3: Hu3D6VHvb4 / Hu3D6VLvb2 (antibody, V domains shown)
VH: B1 VH with D55N, E57D, V59I, F95Y
VL: not shown
modifications: here or on the partner: pHrodo-labeled
B4: Hu3D6VHvb2 / Hu3D6VLvb2 (antibody, V domains shown)
VH: B1 VH with T17S, T28N, D55N, E57D, V68A, M81L, R87T
VL: not shown
modifications: here or on the partner: pHrodo-labeled
B5: Hu3D6VHvb4 / Hu3D6VLvb3 (antibody, V domains shown)
VH: B1 VH with D55N, E57D, V59I, F95Y
VL: B2 VL
modifications: here or on the partner: pHrodo-labeled
B6: Hu3D6VHvb3 / Hu3D6VLvb3 (antibody, V domains shown)
VH: B1 VH with T28N, D55N, E57D, V59I, V68A, F95Y
VL: B2 VL
modifications: here or on the partner: pHrodo-labeled
B7: Hu3D6VHvb3 / Hu3D6VLvb2 (antibody, V domains shown)
VH: B1 VH with T28N, D55N, E57D, V59I, V68A, F95Y
VL: not shown
modifications: here or on the partner: pHrodo-labeled
B8: Hu3D6VHvb5 / Hu3D6VLvb3 (antibody, V domains shown)
VH: B1 VH with V59I, F95Y
VL: B2 VL
modifications: here or on the partner: pHrodo-labeled
B9: Hu3D6VHvb7 / Hu3D6VLvb3 (antibody, V domains shown)
VH: B1 VH with F95Y
VL: B2 VL
modifications: here or on the partner: pHrodo-labeled
B10: Hu3D6VHvb7 / Hu3D6VLvb2 (antibody, V domains shown)
VH: B1 VH with F95Y
VL: not shown
modifications: here or on the partner: pHrodo-labeled
B11: Hu3D6VHvb2 / Hu3D6VLvb3 (antibody, V domains shown)
VH: B1 VH with T17S, T28N, D55N, E57D, V68A, M81L, R87T
VL: B2 VL
modifications: here or on the partner: pHrodo-labeled
B12: Hu3D6VHvb5 / Hu3D6VLvb2 (antibody, V domains shown)
VH: B1 VH with V59I, F95Y
VL: not shown
modifications: here or on the partner: pHrodo-labeled
B13: Hu3D6VHvb1 / Hu3D6VLvb1 (antibody, V domains shown)
VH: QVQLQQSGAELVKPGASVKLSCTASGFNIKDYYLHWVKQRPEQGLEWIGWIDPENGDTVYDPKFQGKATITADTSSNTAYLQLSSLTSEDTAVYFCSTLDFWGQGTTLTVSS
VL: not shown
modifications: here or on the partner: pHrodo-labeled
B14: 7G6 (antibody, from another filing, V domains shown)
VH: QVQLLQPGAELVKPGASVIMSCKASGYTFTTYWITWVKQRPGQGLEWIGDIYPGSSICNYNEKFKSKATLTVDTSSSTAYMQLNSLTSEDSAVYYCAREDGYDAWFAYWGQGTLVTVSA
VL: DVLMTQTPLSLPVSLGDQASISCRSSQSILHSNGNTYLEWYLQKPGQSPKLLICKVSNRFSGVPDRFSGSGSGTDFTLKISRVEAEDLGVYYCFQGSHVPFTFGSGTKLEIK

Sequence of recombinant human tau (human) (P10636 other isoform, or with tags, fused parts or gaps limits assumed): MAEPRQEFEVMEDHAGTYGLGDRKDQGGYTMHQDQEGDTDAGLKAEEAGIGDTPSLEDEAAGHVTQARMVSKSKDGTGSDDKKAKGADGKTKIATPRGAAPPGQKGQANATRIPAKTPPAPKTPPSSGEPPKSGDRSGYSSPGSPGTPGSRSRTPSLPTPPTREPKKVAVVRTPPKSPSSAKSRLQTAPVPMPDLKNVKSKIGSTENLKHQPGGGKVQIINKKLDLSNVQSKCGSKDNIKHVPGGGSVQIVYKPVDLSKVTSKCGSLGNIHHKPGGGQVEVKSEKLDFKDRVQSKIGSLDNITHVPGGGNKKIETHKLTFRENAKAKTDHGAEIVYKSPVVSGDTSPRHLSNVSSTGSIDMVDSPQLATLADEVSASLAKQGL

The target of one experiment is pHrodo-labeled 4R0N human tau P301L soluble oligomer (human), P10636. Kind of experiment: cell-based or functional assay.
Sequence of pHrodo-labeled 4R0N human tau P301L soluble oligomer (human), P10636 (P10636 other isoform, or with tags, fused parts or gaps P301L P301L): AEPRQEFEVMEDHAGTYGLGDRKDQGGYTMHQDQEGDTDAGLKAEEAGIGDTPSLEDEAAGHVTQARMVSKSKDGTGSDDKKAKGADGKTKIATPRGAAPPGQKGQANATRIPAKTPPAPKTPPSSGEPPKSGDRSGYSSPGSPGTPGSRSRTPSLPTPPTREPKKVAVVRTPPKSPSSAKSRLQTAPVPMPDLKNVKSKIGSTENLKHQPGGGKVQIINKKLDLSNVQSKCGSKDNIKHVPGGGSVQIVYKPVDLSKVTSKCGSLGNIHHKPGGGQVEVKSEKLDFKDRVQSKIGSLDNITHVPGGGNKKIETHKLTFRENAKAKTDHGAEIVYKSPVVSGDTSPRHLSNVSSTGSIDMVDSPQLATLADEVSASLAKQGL
In turn, B1 returned an Inhibition of cell based internalization (at 133 nM antibody concentration, % of inhibition of maximal fluorescent signal) of 76.3%.

On to B2, for which the Inhibition of cell based internalization (at 133 nM antibody concentration, % of inhibition of maximal fluorescent signal) came out at 70%.

B3: the Inhibition of cell based internalization (at 133 nM antibody concentration, % of inhibition of maximal fluorescent signal) was 61%.

With B4, the Inhibition of cell based internalization (at 133 nM antibody concentration, % of inhibition of maximal fluorescent signal) amounted to 84.9%.

In turn, B5 gave an Inhibition of cell based internalization (at 133 nM antibody concentration, % of inhibition of maximal fluorescent signal) of 49%.

Consider B6, for which the Inhibition of cell based internalization (at 133 nM antibody concentration, % of inhibition of maximal fluorescent signal) is 72.1%.

Molecule B7 gave an Inhibition of cell based internalization (at 133 nM antibody concentration, % of inhibition of maximal fluorescent signal) of 71.2%.

As to B8, the Inhibition of cell based internalization (at 133 nM antibody concentration, % of inhibition of maximal fluorescent signal) was determined as 67.7%.

Regarding B9, the Inhibition of cell based internalization (at 133 nM antibody concentration, % of inhibition of maximal fluorescent signal) came to 66%.

B10 came in with an Inhibition of cell based internalization (at 133 nM antibody concentration, % of inhibition of maximal fluorescent signal) of 74.5%.

As to B11, the Inhibition of cell based internalization (at 133 nM antibody concentration, % of inhibition of maximal fluorescent signal) came to 85%.

The molecule B12 returned an Inhibition of cell based internalization (at 133 nM antibody concentration, % of inhibition of maximal fluorescent signal) of 67.2%.

B13 showed an Inhibition of cell based internalization (at 133 nM antibody concentration, % of inhibition of maximal fluorescent signal) of 80%.

Another experiment concerns the target recombinant human tau (human) (UniProt P10636). Briefly: SPR, Biacore T200: antibody captured on anti-mouse CM5 chip, recombinant human tau 10-0.14 nM as analyte, global 1:1 fit.
Turning to B14, the dissociation constant Kd was determined as 5.77 nM, the koff stood at 0.00332 s⁻¹ and the on-rate (kon) was 576000 M⁻¹ s⁻¹.

By Kd is commonly meant a measure of binding affinity in units of concentration. Usually koff stands for a measure of how fast the partners let go of each other. In general, kon refers to the rate constant with which the complex forms.

The values are drawn from US20220153821A1.
